# What was measured:
# [1] = target: RT349 (LOV histidine kinase from Rubellimicrobium thermophilum) (Rubellimicrobium thermophilum); experiment: SEC-MALS; LOV-HKs and RH376 deletion mutants; ~15 μM sample (400 μl) with 1 mM ATP on Superdex 200 GL 10/300 in HSEC buffer (50 mM Hepes pH 7.5, 100 mM NaCl, 10 mM MgCl2, 0.5 mM DTT) with 1 mM ATP; dark (dim red light) and lit (blue LED) runs; FPLC at 4 °C, MALS and refractive index at 25 °C; n = 1; oligomeric state on a qualitative five-bin scale
# [2] = target: RE356 (PAS histidine kinase from Rhizobium etli CFN 42) (Rhizobium etli CFN 42); experiment: SEC-MALS; PAS-HKs MS367 and RE356; mixtures, and monomer and dimer fractions purified separately and reinjected on Superdex 200 GL; HSEC buffer with 1 mM ATP; FPLC at 4 °C, MALS at 25 °C; n = 1
# [3] = target: RH376 WT (LOV histidine kinase); experiment: SEC-MALS; LOV-HKs and RH376 deletion mutants; ~15 μM sample (400 μl) with 1 mM ATP on Superdex 200 GL 10/300 in HSEC buffer (50 mM Hepes pH 7.5, 100 mM NaCl, 10 mM MgCl2, 0.5 mM DTT) with 1 mM ATP; dark (dim red light) and lit (blue LED) runs; FPLC at 4 °C, MALS and refractive index at 25 °C; n = 1; oligomeric state on a qualitative five-bin scale
# [4] = target: MS367 (PAS histidine kinase from Methylocella silvestris BL2) (Methylocella silvestris BL2); experiment: SEC-MALS; PAS-HKs MS367 and RE356; mixtures, and monomer and dimer fractions purified separately and reinjected on Superdex 200 GL; HSEC buffer with 1 mM ATP; FPLC at 4 °C, MALS at 25 °C; n = 1
substance,measurement,setting,value
RT349 (LOV histidine kinase from Rubellimicrobium thermophilum) (enzyme),stoichiometry N,[1],2
RE356 (PAS histidine kinase from Rhizobium etli CFN 42) (enzyme),stoichiometry N,[2],2
RH376 WT (LOV histidine kinase) (enzyme),stoichiometry N,[3],2
MS367 (PAS histidine kinase from Methylocella silvestris BL2) (enzyme),stoichiometry N,[4],2
